# Source: patent publication US20180364250
# Test system: OTUB1
# UBCH5C, sequence (chain, as listed by the source): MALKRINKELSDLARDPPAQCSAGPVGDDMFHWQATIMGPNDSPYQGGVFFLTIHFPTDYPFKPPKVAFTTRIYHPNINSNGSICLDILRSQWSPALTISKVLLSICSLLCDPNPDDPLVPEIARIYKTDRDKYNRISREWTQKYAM
substance,measurement,value
UBCH5C,"free ubiquitin released in a real-time deubiquitinase assay (3 µM OTUB1 with or without UbcH5c, 1 nM Atto532-tagged ubiquitin, 1 nM tIVR)","OTUB1 activity is upregulated by UbcH5c, and this was detected by the experiment"
